This passage reports absorbance results from patent US20110243928A1.

The target in assay [1] is Negative control 20 mer peptide (Mimotopes). As to the kind of experiment: 16 mer peptide ELISA control well, control antibody diluted 32-fold. (In an ELISA, binding on a coated surface is turned into a signal by an enzyme label.)
Assay [2] addresses Positive control 20 mer peptide (Mimotopes). Described as above.
The target in assay [3] is Negative control 20 mer peptide (Mimotopes). As to the kind of experiment: 16 mer peptide ELISA control well, control antibody diluted 16-fold.
In assay [4] the target is Positive control 20 mer peptide (Mimotopes). The description is as above.
Assay [5] concerns the target Negative control 20 mer peptide (Mimotopes). As to the kind of experiment: 16 mer peptide ELISA control well, control antibody diluted 4-fold.
In assay [6] the target is Positive control 20 mer peptide (Mimotopes). The description is as above.

Values joined by “and” are separate entries in the source; they are usually repeats but may differ in a detail not shown here. Equal values may be shown once.

Take “Control Ab (Supplied with Mimotopes custom order) (antibody)”: the absorbance at 490 nm in assay [1] was 0.072 A490 and 0.103 A490; in assay [2], 0.739 A490 and 0.976 A490; in assay [3] it was 0.08 A490 and 0.082 A490; in assay [4], 1.2 A490 and 1.21 A490; in assay [5] it was 0.077 A490 and 0.072 A490; in assay [6], 1.5 A490 and 1.55 A490.
